Measured values: patent US8647863

System: ParA resolvase
Assay: cell_activity
Settings: complete recombination of pHCNparA and pSIPHCNparA into minicircle and miniplasmid 30 min after arabinose induction in E. coli; about 50% when resolvase was …

Question: For “ParA resolution sites res1/res2 (in plasmids pHCNparA, pSIPHCNparA, pSIPresHCN)”, which activity is on record?
Answer: 100%
